Results: patent US20180071366A1
Numbered stars: 1 amine (or outer) side, 2 acyl side, 3 side chain; on linkers, the order of the positions; unused ones are H or OH. Bridge positions count the residues as written; N and C are the ends. Square brackets hold non-standard residues; d marks the D form. * marks the point of attachment. C20 diacid = O=C(O)CCCCCCCCCCCCCCCCCCC(=O)*; γGlu = O=C(O)[C@H](CCC(=O)[*:2])N[*:1]; Hyp = O=C(O)[C@@H]1C[C@@H](O)CN1; NMeI = CC[C@H](C)[C@H](NC)C(=O)O; Aad = N[C@@H](CCCC(=O)O)C(=O)O; Orn = NCCC[C@H](N)C(=O)O; Sar = CNCC(=O)O

B1: Compound 25 (peptide)
peptide: {C20 diacid-γGlu}-RDGTAT[Orn]ATERLA[Aad]FLQRATF[Sar]A[NMeI]LSSTEVGSNT[Hyp]-NH2
modifications: lactam 2-7
SMILES: CC[C@H](C)[C@@H](C(=O)N[C@@H](CC(C)C)C(=O)N[C@@H](CO)C(=O)N[C@@H](CO)C(=O)N[C@H](C(=O)N[C@@H](CCC(=O)O)C(=O)N[C@H](C(=O)NCC(=O)N[C@@H](CO)C(=O)N[C@@H](CC(N)=O)C(=O)N[C@H](C(=O)N1C[C@H](O)C[C@H]1C(N)=O)[C@@H](C)O)C(C)C)[C@@H](C)O)N(C)C(=O)[C@H](C)NC(=O)CN(C)C(=O)[C@H](Cc1ccccc1)NC(=O)[C@@H](NC(=O)[C@H](C)NC(=O)[C@H](CCCNC(=N)N)NC(=O)[C@H](CCC(N)=O)NC(=O)[C@H](CC(C)C)NC(=O)[C@H](Cc1ccccc1)NC(=O)[C@H](CCCC(=O)O)NC(=O)[C@H](C)NC(=O)[C@H](CC(C)C)NC(=O)[C@H](CCCNC(=N)N)NC(=O)[C@H](CCC(=O)O)NC(=O)[C@@H](NC(=O)[C@H](C)NC(=O)[C@@H]1CCCNC(=O)C[C@H](NC(=O)[C@H](CCCNC(=N)N)NC(=O)CC[C@H](NC(=O)CCCCCCCCCCCCCCCCCCC(=O)O)C(=O)O)C(=O)NCC(=O)N[C@@H]([C@@H](C)O)C(=O)N[C@@H](C)C(=O)N[C@@H]([C@@H](C)O)C(=O)N1)[C@@H](C)O)[C@@H](C)O
B2: Compound 3 (peptide)
peptide: {C20 diacid-γGlu}-RDGTAT[Orn]ATERLAHFLQRSSF[Sar]A[NMeI]LSSTEVGSNT[Hyp]-NH2
modifications: lactam 2-7
SMILES: CC[C@H](C)[C@@H](C(=O)N[C@@H](CC(C)C)C(=O)N[C@@H](CO)C(=O)N[C@@H](CO)C(=O)N[C@H](C(=O)N[C@@H](CCC(=O)O)C(=O)N[C@H](C(=O)NCC(=O)N[C@@H](CO)C(=O)N[C@@H](CC(N)=O)C(=O)N[C@H](C(=O)N1C[C@H](O)C[C@H]1C(N)=O)[C@@H](C)O)C(C)C)[C@@H](C)O)N(C)C(=O)[C@H](C)NC(=O)CN(C)C(=O)[C@H](Cc1ccccc1)NC(=O)[C@H](CO)NC(=O)[C@H](CO)NC(=O)[C@H](CCCNC(=N)N)NC(=O)[C@H](CCC(N)=O)NC(=O)[C@H](CC(C)C)NC(=O)[C@H](Cc1ccccc1)NC(=O)[C@H](Cc1c[nH]cn1)NC(=O)[C@H](C)NC(=O)[C@H](CC(C)C)NC(=O)[C@H](CCCNC(=N)N)NC(=O)[C@H](CCC(=O)O)NC(=O)[C@@H](NC(=O)[C@H](C)NC(=O)[C@@H]1CCCNC(=O)C[C@H](NC(=O)[C@H](CCCNC(=N)N)NC(=O)CC[C@H](NC(=O)CCCCCCCCCCCCCCCCCCC(=O)O)C(=O)O)C(=O)NCC(=O)N[C@@H]([C@@H](C)O)C(=O)N[C@@H](C)C(=O)N[C@@H]([C@@H](C)O)C(=O)N1)[C@@H](C)O
B3: Compound 26 (peptide)
peptide: {C20 diacid-γGlu}-RDGTAT[Orn]ATERLA[Aad]FLQRAAF[Sar]A[NMeI]LSSTEVGSNT[Hyp]-NH2
modifications: lactam 2-7
SMILES: CC[C@H](C)[C@@H](C(=O)N[C@@H](CC(C)C)C(=O)N[C@@H](CO)C(=O)N[C@@H](CO)C(=O)N[C@H](C(=O)N[C@@H](CCC(=O)O)C(=O)N[C@H](C(=O)NCC(=O)N[C@@H](CO)C(=O)N[C@@H](CC(N)=O)C(=O)N[C@H](C(=O)N1C[C@H](O)C[C@H]1C(N)=O)[C@@H](C)O)C(C)C)[C@@H](C)O)N(C)C(=O)[C@H](C)NC(=O)CN(C)C(=O)[C@H](Cc1ccccc1)NC(=O)[C@H](C)NC(=O)[C@H](C)NC(=O)[C@H](CCCNC(=N)N)NC(=O)[C@H](CCC(N)=O)NC(=O)[C@H](CC(C)C)NC(=O)[C@H](Cc1ccccc1)NC(=O)[C@H](CCCC(=O)O)NC(=O)[C@H](C)NC(=O)[C@H](CC(C)C)NC(=O)[C@H](CCCNC(=N)N)NC(=O)[C@H](CCC(=O)O)NC(=O)[C@@H](NC(=O)[C@H](C)NC(=O)[C@@H]1CCCNC(=O)C[C@H](NC(=O)[C@H](CCCNC(=N)N)NC(=O)CC[C@H](NC(=O)CCCCCCCCCCCCCCCCCCC(=O)O)C(=O)O)C(=O)NCC(=O)N[C@@H]([C@@H](C)O)C(=O)N[C@@H](C)C(=O)N[C@@H]([C@@H](C)O)C(=O)N1)[C@@H](C)O
B4: Compound 27 (peptide)
peptide: {C20 diacid-γGlu}-RDGTAT[Orn]ATERLA[Aad]FLQRGTF[Sar]A[NMeI]LSSTEVGSNT[Hyp]-NH2
modifications: lactam 2-7
SMILES: CC[C@H](C)[C@@H](C(=O)N[C@@H](CC(C)C)C(=O)N[C@@H](CO)C(=O)N[C@@H](CO)C(=O)N[C@H](C(=O)N[C@@H](CCC(=O)O)C(=O)N[C@H](C(=O)NCC(=O)N[C@@H](CO)C(=O)N[C@@H](CC(N)=O)C(=O)N[C@H](C(=O)N1C[C@H](O)C[C@H]1C(N)=O)[C@@H](C)O)C(C)C)[C@@H](C)O)N(C)C(=O)[C@H](C)NC(=O)CN(C)C(=O)[C@H](Cc1ccccc1)NC(=O)[C@@H](NC(=O)CNC(=O)[C@H](CCCNC(=N)N)NC(=O)[C@H](CCC(N)=O)NC(=O)[C@H](CC(C)C)NC(=O)[C@H](Cc1ccccc1)NC(=O)[C@H](CCCC(=O)O)NC(=O)[C@H](C)NC(=O)[C@H](CC(C)C)NC(=O)[C@H](CCCNC(=N)N)NC(=O)[C@H](CCC(=O)O)NC(=O)[C@@H](NC(=O)[C@H](C)NC(=O)[C@@H]1CCCNC(=O)C[C@H](NC(=O)[C@H](CCCNC(=N)N)NC(=O)CC[C@H](NC(=O)CCCCCCCCCCCCCCCCCCC(=O)O)C(=O)O)C(=O)NCC(=O)N[C@@H]([C@@H](C)O)C(=O)N[C@@H](C)C(=O)N[C@@H]([C@@H](C)O)C(=O)N1)[C@@H](C)O)[C@@H](C)O
B5: Compound 28 (peptide)
peptide: {C20 diacid-γGlu}-RDQTAT[Orn]ATERLA[Aad]FLQRGTF[Sar]A[NMeI]LSSTEVGSNT[Hyp]-NH2
modifications: lactam 2-7
SMILES: CC[C@H](C)[C@@H](C(=O)N[C@@H](CC(C)C)C(=O)N[C@@H](CO)C(=O)N[C@@H](CO)C(=O)N[C@H](C(=O)N[C@@H](CCC(=O)O)C(=O)N[C@H](C(=O)NCC(=O)N[C@@H](CO)C(=O)N[C@@H](CC(N)=O)C(=O)N[C@H](C(=O)N1C[C@H](O)C[C@H]1C(N)=O)[C@@H](C)O)C(C)C)[C@@H](C)O)N(C)C(=O)[C@H](C)NC(=O)CN(C)C(=O)[C@H](Cc1ccccc1)NC(=O)[C@@H](NC(=O)CNC(=O)[C@H](CCCNC(=N)N)NC(=O)[C@H](CCC(N)=O)NC(=O)[C@H](CC(C)C)NC(=O)[C@H](Cc1ccccc1)NC(=O)[C@H](CCCC(=O)O)NC(=O)[C@H](C)NC(=O)[C@H](CC(C)C)NC(=O)[C@H](CCCNC(=N)N)NC(=O)[C@H](CCC(=O)O)NC(=O)[C@@H](NC(=O)[C@H](C)NC(=O)[C@@H]1CCCNC(=O)C[C@H](NC(=O)[C@H](CCCNC(=N)N)NC(=O)CC[C@H](NC(=O)CCCCCCCCCCCCCCCCCCC(=O)O)C(=O)O)C(=O)N[C@@H](CCC(N)=O)C(=O)N[C@@H]([C@@H](C)O)C(=O)N[C@@H](C)C(=O)N[C@@H]([C@@H](C)O)C(=O)N1)[C@@H](C)O)[C@@H](C)O

Legend:
[1] = target: recombinant human amylin 3 receptor (hAMYR3) (human), P30988; assay: cell-based or functional assay
[2] = target: recombinant human calcitonin receptor (hCT-R) (human), P30988; assay: cell-based or functional assay
recombinant human calcitonin receptor (hCT-R) (human), P30988, sequence (P30988 25-474): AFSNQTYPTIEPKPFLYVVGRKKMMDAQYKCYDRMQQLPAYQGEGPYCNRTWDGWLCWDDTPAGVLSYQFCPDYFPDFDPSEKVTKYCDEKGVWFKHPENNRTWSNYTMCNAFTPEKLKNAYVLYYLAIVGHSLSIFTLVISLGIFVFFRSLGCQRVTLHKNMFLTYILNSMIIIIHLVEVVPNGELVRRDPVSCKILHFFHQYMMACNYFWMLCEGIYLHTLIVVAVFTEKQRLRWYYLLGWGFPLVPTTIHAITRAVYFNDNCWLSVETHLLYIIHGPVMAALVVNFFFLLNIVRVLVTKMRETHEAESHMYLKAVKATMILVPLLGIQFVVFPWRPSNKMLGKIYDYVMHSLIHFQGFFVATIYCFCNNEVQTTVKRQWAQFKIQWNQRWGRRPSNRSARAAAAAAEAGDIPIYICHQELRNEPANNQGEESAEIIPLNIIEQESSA

recombinant human amylin 3 receptor (hAMYR3) (human), P30988, sequence (P30988 25-474, chain 1 of 2): as the sequence (P30988 25-474) above
recombinant human amylin 3 receptor (hAMYR3) (human), P30988, sequence (O60896 24-148, chain 2 of 2, further chain): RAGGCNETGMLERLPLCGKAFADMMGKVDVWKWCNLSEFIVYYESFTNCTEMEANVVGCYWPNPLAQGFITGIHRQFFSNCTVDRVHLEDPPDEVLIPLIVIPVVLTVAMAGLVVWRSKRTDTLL

Row | Binder | hAMYR3 EC50 [nM] (cAMP formation, 1321N1 cells expressing hAMYR3) [1] | hCT-R EC50 [nM] (cAMP formation, 1321N1 cells expressing hCT-R) [2]
1 | B1 | 0.336 | 0.844
2 | B2 | 0.035 | 0.081
3 | B3 | 0.12 | 0.769
4 | B4 | 0.325 | 0.521
5 | B5 | 0.268 | 1.23
